Source: the supplement of paper PMC5998384

How the values were obtained:
HeLa Kyoto [1] = assay: solubility in G1/S (NP-40 vs SDS abundance) (log2 ratio); higher = more soluble; conditions: cell cycle stage: G1/S
HeLa Kyoto [2] = assay: melting temperature (median over replicates), in situ; higher = more thermally stable
HeLa Kyoto [3] = assay: solubility change mitosis vs G1/S (difference of NP-40 vs SDS log2 ratios) (log2 ratio difference); higher = more soluble in mitosis
HeLa Kyoto [4] = assay: thermal stability score vs G1/S (z-score of summed log2 fold changes over temperatures); higher = more thermally stable than in G1/S
[5] = cell cycle stage: early G1 (4.5 h after nocodazole release)
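Wherever melting temperature (median over replicates), in situ is given: HeLa Kyoto cells synchronized by double thymidine or nocodazole block, proteins quantified by TMT10plex mass spectrometry, three independent biological replicates.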
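Wherever solubility change mitosis vs G1/S (difference of NP-40 vs SDS log2 ratios) is given: synchronized HeLa Kyoto cells (double thymidine block for G1/S, nocodazole release for mitosis), protein amounts in NP-40 versus SDS lysates quantified by mass spectrometry, three biological replicates.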
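Wherever solubility in G1/S (NP-40 vs SDS abundance) is given: HeLa Kyoto cells arrested at G1/S by double thymidine block, proteins quantified by TMT10plex mass spectrometry in mild NP-40 versus SDS extracts, three biological replicates.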
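Wherever thermal stability score vs G1/S (z-score of summed log2 fold changes over temperatures) is given: synchronized HeLa Kyoto cells, proteins quantified by TMT10plex mass spectrometry, three biological replicates, mitosis taken 0.5 h after nocodazole release, G1/S directly after double thymidine block.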

Row | Substance | solubility in G1/S (log2) (HeLa Kyoto [1]) | melting temperature (HeLa Kyoto [2]; cell cycle stage: G1/S) [°C] | melting temperature (HeLa Kyoto [2]; cell cycle stage: mitosis) [°C] | solubility change mitosis (log2) (HeLa Kyoto [3]) | thermal stability score (HeLa Kyoto [4]; [5]) | thermal stability score (HeLa Kyoto [4]; cell cycle stage: mitosis)
1 | MQLRNPELHLGCALALRFLALVSWDIPGARALDNGLARTPTMGWLHWERFMCNLDCQEEPDSCISEKLFMEMAELMVSEGWKDAGYEYLCIDDCWMAPQRDSEGRLQADPQRFPHGIRQLANYVHSKGLKLGIYADVGNKTCAGFPGSFGYYDIDAQTFADWGVDLLKFDGCYCDSLENLADGYKHMSLALNRTGRSIVYSCEWPLYMWPFQKPNYTEIRQYCNHWRNFADIDDSWKSIKSILDWTSFNQERIVDVAGPGGWNDPDMLVIGNFGLSWNQQVTQMALWAIMAAPLFMSNDLRHISPQAKALLQDKDVIAINQDPLGKQGYQLRQGDNFEVWERPLSGLAWAVAMINRQEIGGPRSYTIAVASLGKGVACNPACFITQLLPVKRKLGFYEWTSRLRSHINPTGTVLLQLENTMQMSLKDLL | 0.24 | 55.1 | 56.7 | -0.105 | -3.45 | -2.97
2 | MELRVGNRYRLGRKIGSGSFGDIYLGTDIAAGEEVAIKLECVKTKHPQLHIESKIYKMMQGGVGIPTIRWCGAEGDYNVMVMELLGPSLEDLFNFCSRKFSLKTVLLLADQMISRIEYIHSKNFIHRDVKPDNFLMGLGKKGNLVYIIDFGLAKKYRDARTHQHIPYRENKNLTGTARYASINTHLGIEQSRRDDLESLGYVLMYFNLGSLPWQGLKAATKRQKYERISEKKMSTPIEVLCKGYPSEFATYLNFCRSLRFDDKPDYSYLRQLFRNLFHRQGFSYDYVFDWNMLKFGASRAADDAERERRDREERLRHSRNPATRGLPSTASGRLRGTQEVAPPTPLTPTSHTANTSPRPVSGMERERKVSMRLHRGAPVNISSSDLTGRQDTSRMSTSQIPGRVASSGLQSVVHR [CSNK1D] | -0.067 | 50.1 | 50.9 | -0.0573 | -0.73 | -0.371
3 | MPLVTRNIEPRHLCRQTLPSVRSELECVTNITLANVIRQLGSLSKYAEDIFGELFTQANTFASRVSSLAERVDRLQVKVTQLDPKEEEVSLQGINTRKAFRSSTIQDQKLFDRNSLPVPVLETYNTCDTPPPLNNLTPYRDDGKEALKFYTDPSYFFDLWKEKMLQDTKDIMKEKRKHRKEKKDNPNRGNVNPRKIKTRKEEWEKMKMGQEFVESKEKLGTSGYPPTLVYQNGSIGCVENVDASSYPPPPQSDSASSPSPSFSEDNLPPPPAEFSYPVDNQRGSGLAGPKRSSVVSPSHPPPAPPLGSPPGPKPGFAPPPAPPPPPPPMIGIPPPPPPVGFGSPGTPPPPSPPSFPPHPDFAAPPPPPPPPAADYPTLPPPPLSQPTGGAPPPPPPPPPPGPPPPPFTGADGQPAIPPPLSDTTKPKSSLPAVSDARSDLLSAIRQGFQLRRVEEQREQEKRDVVGNDVATILSRRIAVEYSDSEDDSSEFDEDDWSD [WASF2] | 0.196 | 51.8 | 51.5 | -0.146 | 0.736 | 1.04
4 | MLVPLAKLSCLAYQCFHALKIKKNYLPLCATRWSSTSTVPRITTHYTIYPRDKDKRWEGVNMERFAEEADVVIVGAGPAGLSAAVRLKQLAVAHEKDIRVCLVEKAAQIGAHTLSGACLDPGAFKELFPDWKEKGAPLNTPVTEDRFGILTEKYRIPVPILPGLPMNNHGNYIVRLGHLVSWMGEQAEALGVEVYPGYAAAEVLFHDDGSVKGIATNDVGIQKDGAPKATFERGLELHAKVTIFAEGCHGHLAKQLYKKFDLRANCEPQTYGIGLKELWVIDEKNWKPGRVDHTVGWPLDRHTYGGSFLYHLNEGEPLVALGLVVGLDYQNPYLSPFREFQRWKHHPSIRPTLEGGKRIAYGARALNEGGFQSIPKLTFPGGLLIGCSPGFMNVPKIKGTHTAMKSGILAAESIFNQLTSENLQSKTIGLHVTEYEDNLKNSWVWKELYSVRNIRPSCHGVLGVYGGMIYTGIFYWILRGMEPWTLKHKGSDFERLKPAKDCTPIEYPKPDGQISFDLLSSVALSGTNHEHDQPAHLTLRDDSIPVNRNLSIYDGPEQRFCPAGVYEFVPVEQGDGFRLQINAQNCVHCKTCDIKDPSQNINWVVPEGGGGPAYNGM [ETFDH] | 0.107 | 54.4 | 53.8 | -0.184 | -0.885 | -1.65
5 | METVISSDSSPAVENEHPQETPESNNSVYTSFMKSHRCYDLIPTSSKLVVFDTSLQVKKAFFALVTNGVRAAPLWDSKKQSFVGMLTITDFINILHRYYKSALVQIYELEEHKIETWREVYLQDSFKPLVCISPNASLFDAVSSLIRNKIHRLPVIDPESGNTLYILTHKRILKFLKLFITEFPKPEFMSKSLEELQIGTYANIAMVRTTTPVYVALGIFVQHRVSALPVVDEKGRVVDIYSKFDVINLAAEKTYNNLDVSVTKALQHRSHYFEGVLKCYLHETLETIINRLVEAEVHRLVVVDENDVVKGIVSLSDILQALVLTGGEKKP [PRKAG1] | 0.164 | 50.7 | 51.2 | -0.127 | 0.779 | 1.52
6 | DNAJC13 | -0.463 | 50.8 | 50.3 | -0.026 | -0.329 | -1.08
7 | MRRFLLLYATQQGQAKAIAEEICEQAVVHGFSADLHCISESDKYDLKTETAPLVVVVSTTGTGDPPDTARKFVKEIQNQTLPVDFFAHLRYGLLGLGDSEYTYFCNGGKIIDKRLQELGARHFYDTGHADDCVGLELVVEPWIAGLWPALRKHFRSSRGQEEISGALPVASPASSRTDLVKSELLHIESQVELLRFDDSGRKDSEVLKQNAVNSNQSNVVIEDFESSLTRSVPPLSQASLNIPGLPPEYLQVHLQESLGQEESQVSVTSADPVFQVPISKAVQLTTNDAIKTTLLVELDISNTDFSYQPGDAFSVICPNSDSEVQSLLQRLQLEDKREHCVLLKIKADTKKKGATLPQHIPAGCSLQFIFTWCLEIRAIPKKAFLRALVDYTSDSAEKRRLQELCSKQGAADYSRFVRDACACLLDLLLAFPSCQPPLSLLLEHLPKLQPRPYSCASSSLFHPGKLHFVFNIVEFLSTATTEVLRKGVCTGWLALLVASVLQPNIHASHEDSGKALAPKISISPRTTNSFHLPDDPSIPIIMVGPGTGIAPFIGFLQHREKLQEQHPDGNFGAMWLFFGCRHKDRDYLFRKELRHFLKHGILTHLKVSFSRDAPVGEEEAPAKYVQDNIQLHGQQVARILLQENGHIYVCGDAKNMAKDVHDALVQIISKEVGVEKLEAMKTLATLKEEKRYLQDIWS [MTRR] | 0.0379 | 50.1 | 50.2 | -0.105 | 0.212 | 0.326
8 | MADSASESDTDGAGGNSSSSAAMQSSCSSTSGGGGGGGGGGGGGKSGGIVISPFRLEELTNRLASLQQENKVLKIELETYKLKCKALQEENRDLRKASVTIQARAEQEEEFISNTLFKKIQALQKEKETLAVNYEKEEEFLTNELSRKLMQLQHEKAELEQHLEQEQEFQVNKLMKKIKKLENDTISKQLTLEQLRREKIDLENTLEQEQEALVNRLWKRMDKLEAEKRILQEKLDQPVSAPPSPRDISMEIDSPENMMRHIRFLKNEVERLKKQLRAAQLQHSEKMAQYLEEERHMREENLRLQRKLQREMERREALCRQLSESESSLEMDDERYFNEMSAQGLRPRTVSSPIPYTPSPSSSRPISPGLSYASHTVGFTPPTSLTRAGMSYYNSPGLHVQHMGTSHGITRPSPRRSNSPDKFKRPTPPPSPNTQTPVQPPPPPPPPPMQPTVPSAATSQPTPSQHSAHPSSQP [CCDC6] | 0.826 | 53.5 | 53.6 | -0.174 | -2.05 | 0.137
9 | MAGPELLLDSNIRLWVVLPIVIITFFVGMIRHYVSILLQSDKKLTQEQVSDSQVLIRSRVLRENGKYIPKQSFLTRKYYFNNPEDGFFKKTKRKVVPPSPMTDPTMLTDMMKGNVTNVLPMILIGGWINMTFSGFVTTKVPFPLTLRFKPMLQQGIELLTLDASWVSSASWYFLNVFGLRSIYSLILGQDNAADQSRMMQEQMTGAAMAMPADTNKAFKTEWEALELTDHQWALDDVEEELMAKDLHFEGMFKKELQTSIF [EMC3] | -0.174 | 54.1 | 53.7 | -0.25 | -0.437 | -0.599
10 | MMGRSPGFAMQHIVGVPHVLVRRGLLGRDLFMTRTLCSPGPSQPGEKRPEEVALGLHHRLPALGRALGHSIQQRATSTAKTWWDRYEEFVGLNEVREAQGKVTEAEKVFMVARGLVREAREDLEVHQAKLKEVRDRLDRVSREDSQYLELATLEHRMLQEEKRLRTAYLRAEDSEREKFSLFSAAVRESHEKERTRAERTKNWSLIGSVLGALIGVAGSTYVNRVRLQELKALLLEAQKGPVSLQEAIREQASSYSRQQRDLHNLMVDLRGLVHAAGPGQDSGSQAGSPPTRDRDVDVLSAALKEQLSHSRQVHSCLEGLREQLDGLEKTCSQMAGVVQLVKSAAHPGLVEPADGAMPSFLLEQGSMILALSDTEQRLEAQVNRNTIYSTLVTCVTFVATLPVLYMLFKAS [CCDC51] | 0.273 | 53.5 | 52.7 | -0.0792 | 0.333 | 0.178
11 | MSLMVSAGRGLGAVWSPTHVQVTVLQARGLRAKGPGGTSDAYAVIQVGKEKYATSVSERSLGAPVWREEATFELPSLLSSGPAAAATLQLTVLHRALLGLDKFLGRAEVDLRDLHRDQGRRKTQWYKLKSKPGKKDKERGEIEVDIQFMRNNMTASMFDLSMKDKSRNPFGKLKDKIKGKNKDSGSDTASAIIPSTTPSVDSDDESVVKDKKKKSKIKTLLSKSNLQKTPLSQSMSVLPTSKPEKVLLRPGDFQSQWDEDDNEDESSSASDVMSHKRTASTDLKQLNQVNFTLPKKEGLSFLGGLRSKNDVLSRSNVCINGNHVYLEQPEAKGEIKDSSPSSSPSPKGFRKKHLFSSTENLAAGSWKEPAEGGGLSSDRQLSESSTKDSLKSMTLPSYRPAPLVSGDLRENMAPANSEATKEAKESKKPESRRSSLLSLMTGKKDVAKGSEGENPLTVPGREKEGMLMGVKPGEDASGPAEDLVRRSEKDTAAVVSRQGSSLNLFEDVQITEPEAEPESKSEPRPPISSPRAPQTRAVKPRLEVSPEAQPTARLPSPTDSPSSLPPLPSSSGQASVPSELGHGADTQSSESPSVFSSLSSPIAAPISTSTPIESWPLVDRGQAKSEGPPLLPKAELQTESLTPVPNSGSSALGSLFKQPSFPANKGTEDSLMGRTRETGTEKNTSSLELEESLPEQPETGRQEEELPRFPCKKQDYSPSSGEAQEVPFALSLSSDGAVSPVGELAAGGDRDLESQAGSLVESKARDAAEEVAPPLPMGASVPSIDSMMRKLEEMGLNLRKDQKKTKKRVSFSEQLFTEEAVAGAALLVEGHSSCPQELNPAWSVAGNASDGEPPESPHAEDSERESVTTPGPATCGAPASPADHLLLPSQEESFSEVPMSEASSAKDTPLFRMEGEDALVTQYQSKASDHEGLLSDPLSDLQLVSDFKSPIMADLNLSLPSIPEVASDDERIDQVEDDGDQVEDDGETAKSSTLDIGALSLGLVVPCPERGKGPSGEADRLVLGEGLCDFRLQAPQASVTAPSEQTTEFGIHKPHLGKSSSLDKQLPGPSGGEEEKPMGNGSPSPPPGTSLDNPVPSPSPSEIFPVTHSFPSSAHSDTHHTSTAESQKKATAEGSAGRVENFGKRKPLLQAWVSPSETHPVSAQPGAGTGSAKHRLHPVKPMNAMATKVANCSLGTATIISENLNNEVMMKKYSPSDPAFAYAQLTHDELIQLVLKQKETISKKEFQVRELEDYIDNLLVRVMEETPNILRIPTQVGKKAGKM [RAB11FIP1] | 0.306 | 51 | 50.1 | -0.196 | 0.112 | 0.383
12 | MAAVPELLQQQEEDRSKLRSVSVDLNVDPSLQIDIPDALSERDKVKFTVHTKTTLPTFQSPEFSVTRQHEDFVWLHDTLIETTDYAGLIIPPAPTKPDFDGPREKMQKLGEGEGSMTKEEFAKMKQELEAEYLAVFKKTVSSHEVFLQRLSSHPVLSKDRNFHVFLEYDQDLSVRRKNTKEMFGGFFKSVVKSADEVLFTGVKEVDDFFEQEKNFLINYYNRIKDSCVKADKMTRSHKNVADDYIHTAACLHSLALEEPTVIKKYLLKVAELFEKLRKVEGRVSSDEDLKLTELLRYYMLNIEAAKDLLYRRTKALIDYENSNKALDKARLKSKDVKLAEAHQQECCQKFEQLSESAKEELINFKRKRVAAFRKNLIEMSELEIKHARNNVSLLQSCIDLFKNN [SNX5] | 0.468 | 52.3 | 50.9 | -0.0436 | 0.949 | -0.872
